Laboratory results taken from patent US20200123266A1 (Memorial Sloan Kettering, published 2020).
Ends that are not written are not given here. * marks the point of attachment. Biotin = O=C1N[C@H]2[C@H](CS[C@H]2CCCCC(=O)*)N1

Experiments:
[1] = molecular target: T1, ET140-p26 (human, cysteine pairing not given here); experiment: peptide ELISA, biotin peptide on streptavidin plate, antibody 1 ug/mL
T1 construct: also called peptide 26
T1 peptide: Biotin-SGSGRCSSNTPPLTCQRYC
Description: (§1) The peptides were coated onto Streptavidin plates at 2 ug/mL in PBST (PBS+0.05% Tween-20). After washing and blocking with 3% BSA. After washing, 1 ug/mL ET140-3, ET140-24, ET140-54 or ET901 mIgG1 was added to the wells, respectively. “mIgG1” used in all Examples represents that the variable region is fully human and the Fc part is mouse IgG1. Then HRP anti-mouse IgG detection antibody was added to each well. Finally, the color was developed using TMB substrate. A450 was recorded for data analysis.

[2] = molecular target: T2, ET140-p25 (human, cysteine pairing not given here); experiment: as above
T2 construct: also called peptide 25
T2 peptide: Biotin-SGSGLRCSSNTPPLTCQRY
Description: as §1

- A450 [1]: 0.225
- A450 [2]: 0.583
B1: ET140-153 mIgG1 (antibody, V domains shown)
VH: QVQLVQSGAEVKKPGSSVKVSCKASGGTFSSYAISWVRQAPGQGLEWMGRIIPILGIANYAQKFQGRVTITADKSTSTAYMELSSLRSEDTAVYYCARGGYYSHDMWSEDWGQGTLVTVSS
VL: LPVLTQPPSASGTPGQRVTISCSGRSSNIGSNSVNWYRQLPGAAPKLLIYSNNQRPPGVPVRFSGSKSGTSASLAISGLQSEDEATYYCATWDDNLNVHYVFGTGTKVTVLG
notes: also called ET140-3 mIgG1; ET140-3
